The record followed here is patent US20130143953A1 (TRUSTEES OF TUFTS COLLEGE, published 2013).

The target in experiment [1] is human membrane attack complex (C5b-9) formed from normal human serum on mouse cells (human) (UniProt P01031). The experiment is described as follows: cell-based or functional assay.
Experiment [2] has as its target human membrane attack complex (C5b-9) formed from normal human serum on mouse cells (human, UniProt P01031 752-1676; P13671 22-934; P10643 23-843; P07357 31-584; P07358 55-591; …). The experiment is described as follows: cell-based or functional assay.

B1: human CD59, GPI-anchored membrane form expressed from the AdCAGCD59 vector (protein, UniProt P13987 26-102, looked up)
chain: LQCYNCPNPTADCKTAVNCSSDFDACLITKAGLQVYNKCWKFEHCNFNDVTTRLRENELTYYCCKKDLCNFNEQLEN
modifications: glycosyl phosphatidyl inositol (GPI) anchor at asparagine 77 of the mature protein; N-glycosylated
In experiment [1], B1 yielded a complement mediated cell lysis (PI uptake, FACS; hepa-1c1c7 cells, 1000 vp/cell AdCAGCD59, 1% NHS) of 12.3%; a fold reduction of complement mediated cell lysis (PI uptake, FACS; hepa-1c1c7 cells, 1000 vp/cell AdCAGCD59, 1% NHS) of 8 fold; an inhibition of cell lysis at 250 vp/cell AdCAGCD59 (hepa-1c1c7 cells, NHS) above 50%; an inhibition of cell lysis at 500 vp/cell AdCAGCD59 (hepa-1c1c7 cells, NHS) above 70%. In experiment [1], this molecule showed a reduction in MAC immunofluorescence intensity on mouse corneal endothelium (ex vivo, 50% NHS, 20 minutes) of 86%; a reduction in MAC immunofluorescence on mouse eyecups, 7.5 minutes NHS of 68%; a reduction in MAC immunofluorescence on mouse eyecups, 15 minutes NHS of 56%; a reduction in mean MAC immunofluorescence intensity on mouse eyecup RPE at the area of GFP expression of 55%.

B2: membrane-independent (soluble) human CD59 lacking the C-terminal 26 amino acids, expressed from AdCAGsCD59 or AAVCAGsCD59 (other)
chain: LQCYNCPNPTADCKTAVNCSSDFDACLITKAGLQVYNKCWKFEHCNFNDVTTRLRENELTYYCCKKDLCNFNEQLEN
modifications: N-glycosylated forms (14-18 kDa)
Take B2: the “protection against cell lysis relative to AdCAGGFP-conditioned media with NHS (Hepa-1c1c7 cells)” value in experiment [2] came to 34.1%.
